The source of these data is article PMC5131891, “Structural Insights into Streptococcal Competence Regulation by the Cell-to-Cell Communication System ComRS” (PLoS Pathogens, 2016).

As usually defined, the stoichiometry N is a count of units in the complex or per binding partner.

Data set [1] deals with ComR from S. thermophilus. On the set-up: method as in 2 sources, ref [30] = [30]; PMID 23323845; doi:10.1111/mmi.12157; 30 Fontaine L , Goffin P , Dubout H , Delplace B , Baulard A , Lecat-Guillet N , et al Mechanism of competence activation by the ComRS signalling system in streptococci . Mol Microbiol . 2013; 87 ( 6 ||| ref [29] = [29]; PMID 20023010; doi:10.1128/JB.01251-09; 29 Fontaine L , Boutry C , de Frahan MH , Delplace B , Fremaux C , Horvath P , et al A novel pheromone quorum-sensing system controls the development of natural competence in Streptococcus thermophilu. The following applies: cited from earlier work; for activity of heptapeptide ComS18-24: previous study, lacking the N-terminal Leucine, ref [29]; for in vivo activation efficiency / activation of ComR: previous analysis, ComR from S. thermophilus, ref [30].

Data set [2] addresses ComR WT (Streptococcus thermophilus, UniProt A0A1L1QK15). In words: biochemical. The format is binding, Streptococcus thermophilus LMD-9. Conditions: for Kd: Table 2 (WT and variant XIPs), ITC, 20°C, 20 mM Tris-HCl pH 8.0, 150 mM NaCl, 1 mM EDTA, 50 μM protein in cell, 500 μM peptide in syringe, one-binding-site model, apparent KD, read-out: KD. The protocol: Purification of ComR-StreptagII proteins (StreptagII at C-terminus) was performed as described previously with some modifications. E. coli strain BL21 Gold cultures were grown in 2YT medium at 15°C until an OD600 of ~ 0.5, cooled down on ice for 10 minutes, and induced by addition of 0.2% of L-arabinose (wt vol^-1) before continuous shaking at 28°C for 4 h. Cells were then harvested by centrifugation (5,000 × g during 15 min at 8°C). The pellets were resuspended in cold buffer W (100 mM Tris-HCl pH 8.0, 150 mM NaCl, 1 mM EDTA) supplemented with 0.5 mg ml^−1 of lysozyme, incubated for 30 min at 4°C, and sonicated at 4°C. […] For structural and biophysical analyses, the purification protocol was completed by a size exclusion chromatography step using a HiLoad 16/600 Superdex 75 prep grade column (GE Healthcare) equilibrated in buffer W plus 10% (vol vol^-1) glycerol. Purified proteins were aliquoted, flash frozen and conserved at -20°C. Their purity was visualized by SDS-PAGE and their concentrations were measured using a Nanodrop apparatus (protein A280 method) (ThermoFisher Scientific).
Isothermal titration calorimetry (ITC) experiments were performed at 20°C in 20 mM Tris-HCl pH 8.0, 150 mM NaCl, 1 mM EDTA with an ITC200 calorimeter (Microcal). The protein concentration in the microcalorimeter cell and the peptide concentration in the syringe were set at 50 μM and 500 μM, respectively. A first injection of 0.4 μl, which was not taken into account for the fitting, was followed by 20 injections of 2 μl at intervals of 180 s. The peptide concentration used in the calculations is based on the weight of the lyophilized peptide and is therefore inaccurate because there may be a significant quantity of bound water, and salts or counter ions. However, the calculated number of binding sites, n, is always close to 1, in agreement with the 1:1 ratio observed in the crystal structure of the ternary complex. […] The data were analyzed using the MicroCal Origin software provided by the manufacturer. […] It was therefore not possible to distinguish the two events and the fitting was performed with the one-binding-site model. The calculated KD are therefore apparent values.

Data set [3] deals with ComR from Streptococcus thermophilus LMD-9 (ComR-StreptagII, wild type) (Streptococcus thermophilus LMD-9). In words: ITC; peptide 500 μM in the syringe, ComR 50 μM in the cell; 20°C; 20 mM Tris-HCl pH 8.0, 150 mM NaCl, 1 mM EDTA; one-binding-site model; apparent KD (peptide binding and dimerization not told apart).
In data set [4] the target is ComR F171A/Y174A (ComR-StreptagII double mutant) (Streptococcus thermophilus LMD-9). Described as above.
The target of data set [5] is ComR R92A (ComR-StreptagII mutant) (Streptococcus thermophilus LMD-9). The data set is described as above.
In data set [6] the target is ComR T90A (ComR-StreptagII mutant) (Streptococcus thermophilus LMD-9). The data set is described as above.
The target of data set [7] is ComR Y91A (ComR-StreptagII mutant) (Streptococcus thermophilus LMD-9). The data set is described as above.
Data set [8] deals with ComR K87A/K246A (ComR-StreptagII double mutant) (Streptococcus thermophilus LMD-9). The data set is described as above.
Data set [9] concerns the target ComR from Streptococcus thermophilus LMD-9 (ComR-StreptagII, wild type) (Streptococcus thermophilus LMD-9). Described as above. The source holds these as a separate data set.
Data set [10] deals with ComR K100A (ComR-StreptagII mutant) (Streptococcus thermophilus LMD-9). The data set is described as above.
Data set [11] addresses T1, ComR WT (Streptococcus thermophilus LMD-9, UniProt PDB:5JUB_1 1-310).
T1 sequence: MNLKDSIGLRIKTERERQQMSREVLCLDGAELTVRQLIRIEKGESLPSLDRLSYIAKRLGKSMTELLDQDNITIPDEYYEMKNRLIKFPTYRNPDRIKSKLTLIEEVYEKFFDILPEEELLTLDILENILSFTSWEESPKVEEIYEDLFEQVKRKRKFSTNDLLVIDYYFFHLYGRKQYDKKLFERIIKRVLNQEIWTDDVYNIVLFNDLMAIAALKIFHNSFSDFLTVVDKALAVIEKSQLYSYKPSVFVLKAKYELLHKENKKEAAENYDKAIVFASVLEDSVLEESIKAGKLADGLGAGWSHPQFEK
In words: X-ray crystallography; XIP (LPYFAGCL); 0.1 M MgCl2 in crystallization; EMSA: 20 mM Tris-HCl pH 8.0, 150 mM NaCl, 1 mM EDTA, 10% glycerol, 1 mg/ml BSA, 37 C 10 min, 40 ng DNA in 20 ul; crystal: 30% PEG 550 MME, 0.1 M MgCl2, 0.05 M Tris-HCl pH 8.5, 18 C. Conditions: protein: recombinant; tags: C-terminal StreptagII; chain copies: 2; blunt.

Where two headings read alike, the source gives them in different places. Peptide text beside a SMILES is read from it.

Regarding “ComS18-24: heptapeptide ComS18-24 lacking the N-terminal Leucine, minimal active form of the signaling peptide (PYFAGCL)”, the figures for the “activity of heptapeptide ComS18-24” value in [1] and in data set [1] (listed as heptapeptide 18–24) were “also fully active” and “minimal active form of the signaling peptide”, respectively.
For the molecule “LAYFYPEL [casein-derivative peptide LAYFYPEL]”, the “in vivo activation efficiency / activation of ComR” value in [1] is “inactive”.
For the molecule `CC(C)C[C@H](NC(=O)[C@H](CS)NC(=O)CNC(=O)[C@H](C)NC(=O)[C@H](Cc1ccccc1)NC(=O)[C@H](C)NC(=O)[C@@H]1CCCN1C(=O)[C@@H](N)CC(C)C)C(=O)O` [Y19A] (H-LPAFAGCL-OH), in data set [2], the affinity in words result is on record as “only little impact on the affinity of the protein” and the Kd worked out at 52 ± 13 nM.
For `CC(C)C[C@H](N)C(=O)N1CCC[C@H]1C(=O)N[C@@H](Cc1ccc(O)cc1)C(=O)N[C@@H](Cc1ccccc1)C(=O)N[C@@H](C)C(=O)NCC(=O)N[C@@H](CS)C(=O)N[C@@H](C)C(=O)O` [L24A] (H-LPYFAGCA-OH), in data set [2], the affinity in words result is on record as “the affinity of the peptide decreases drastically” and the Kd came to 1550 ± 332 nM.
Regarding “VPFFMIYY [type I peptide VPFFMIYY from S. vestibularis]”, in data set [1], the “in vivo activation efficiency / activation of ComR” value is recorded as “more efficiently activated by the type II peptide MGLDWWSL from S. mutans than by the type I peptide VPFFMIYY”.
Consider “MGLDWWSL [type II peptide MGLDWWSL from S. mutans]”, for which, in data set [1], the “in vivo activation efficiency / activation of ComR” value was “more efficiently activated by the type II peptide MGLDWWSL from S. mutans than by the type I peptide VPFFMIYY”.
As to `CC(C)C[C@H](NC(=O)[C@H](CS)NC(=O)CNC(=O)[C@H](C)NC(=O)[C@H](C)NC(=O)[C@H](Cc1ccc(O)cc1)NC(=O)[C@@H]1CCCN1C(=O)[C@@H](N)CC(C)C)C(=O)O` [F20A] (H-LPYAAGCL-OH), in data set [2], the affinity in words entry is on record as “the affinity of the peptide decreases drastically” and the Kd was found to be 2130 ± 226 nM.
Regarding “GAWYYVPL [casein-derived octapeptide GAWYYVPL]”, in data set [1], the “in vivo activation efficiency / activation of ComR” value is recorded as “also activated”.
For LPYFAGCL [XIP octapeptide (ComS 17-24, LPYFAGCL) from Streptococcus thermophilus LMD-9], the Kd stood at 8 nM in data set [3]; 87 nM in data set [4]; 277 nM in data set [5]; 244 nM in [6]; 141 nM in data set [7]; 9 nM in data set [8]. Moreover, the Kd in [9] stood at 10 nM; in [10], 1180 nM. The stoichiometry N in [3] came out at 1.1; in [4], 1.1; in data set [5], 1.2; in [6] it was 0.7; in data set [7], 0.9; in [8], 0.8. In addition, the stoichiometry N in data set [9] and in data set [10] was 0.8 in each case.

B1: PcomX ComR-box (20 bp) (dsDNA)
DNA 1: TAGTGACATATATGTCTCTA
DNA 2: TAGAGACATATATGTCACTA
Take B1: the binding result in data set [11] is “binds”.
Consider LPAFAGCL [XIP Y19A variant (ComS 17-24 with Y19A)], for which, in data set [3], the Kd was 52 nM and the stoichiometry N was 1.5.
For LPYFAGCA [XIP L24A variant (ComS 17-24 with L24A)] the same measures were 1550 nM and 1.75.
As for LPYAAGCL [XIP F20A variant (ComS 17-24 with F20A)], in [3], the Kd was determined as 2130 nM and the stoichiometry N was 1.2.
